From the DeepSol protein solubility set

Assay: soluble on expression in E. coli; label from the status in PepcDB or PDB records

Sequence	soluble on expression in E. coli
MAHHHHHHMMSFTANSGNSPMSQMSPLSQPYTSPQMLPQSSLRPTAPPFTLSGTEDQPTAGAPIRKGGTDPTRYKTTICRNWEMGSCSFKGCTFAHGEEELRMPPRVERYKSSGFDTRRSLTAETPPLYPLNPLPHSGVGRIEHLLNMLYSEVLRERNRFVAHEEANQALEALLKKEQMQREETEVQLEAARWKLEQLRTTVHEASVEINTLLASSPANEELRDRVAMVTQKIASVFSSEDTAVGGGREDEERVMKLLSSLQNCQSTEDM	not soluble
MAHHHHHHMMSNTTSSGKGPTTFMWNSVPPSGDMPLHGCCHSLANYKDEQLILFGGGALHIIFNDVYCFDLKTSTWSYKETTNSEIVAPRISHSAVVHEDKMYVYGGQDLYMPTRFADVLVLDLITFTWSLIQQQATPAPDGPGDRRLHTAHIYRNCMYVLMGEPCNISNSFWFLDLTTLEWHPVHSSGWFGKPILPLLGHSAQVEGDYLYVFGGYHADSARRNGSPVYNNSLFSYHFPSNTWREVVPSSGPRPSPRYASAMAVIRGRVFIYGGDVDGEVYFDDFWCIDTNIPSSAASQSSSSSSYTTSLVAAPPAASSRWIDITLSCGRGRPSARSGHASAVAQGCLFVVGGELPGDRDVVYYSNRTYRYPLGYLTRLSLVELSSLWLAKCNPANIWMLDTQIPRHVRQLLVRNLNAQDRESTDDMMPCTRVVC	not soluble
MAHHHHHHMNAVKLPEEWETLCSTNDAEVIHECINGVFRRLLANLLLDFNNPKLRQVKKDNKALHRLTDSLPAGFIEFLFSSIGFVEHDDVFIFEGSPESLKHGDAVLSYIEDSFGKERLQAAECELHRLRNLAIKKAENGLAPREMMTATAPLPRTQPLPQEEDAKRQAQHSGTEKDVAEEHAVKETVRKTLLNTGRVRNGFFEARDFSVRIMQHGRVYACTEKCPDHCVEVHWHLLTGRNILYSHLAHLSADGTRLLHLGPEHGYQYNSLPGSANFGKMIHFSEKLMDENGRLVHIKNDDKPVTACIYCGRAFAQLLL	not soluble
MAHHHHHHMNLSDSNKDLNDSKSDKSTSWVKWFNSRAFSNFLVEVDNEYITDSFNLYGLKSEMPNFNHLLSIVAGDAPEEDDAKNAFGKDAVSLYSLIHARFITTPKGLSLMKDKYIKGDFGSCPRVSCSQHNVLPIGLFDQIKIAKVHVYCPLCQEIYKIHEEDKVYLDGSFFGTSFPHILLQTYPYYATLKTPSYCTSKIFGFSVYHNFTRTEYKIAKGEFGKLSRENFLKKNPKYLKKLKKEELQIKDT	not soluble
MAHHHHHHMNPSLSDSKFEKAMSKLQLLEDSRTILHRMLQHAHFSFSNAQRQMDRTGLLLAWEAVPTAAGAVKPQYCIVREMKDGGNGGDAGVGAAAISDDNVDCAVWKLVNCGDSAGEDPAKWFAVAPSEALRECQQHFRGVVNACVKVIQAQEEAITAAATVPVT	not soluble
MAHHHHHHMNSNPTTEMTTTKKEHSQDNMCEIMNKSDKNNNSSLSSRSEKSQSEEIKLCNSGIFNEDKEKQYNDFLKSYNAEYSVEQMKNFLKNGITENGVRILTTDKCSWLYDYYRITKTSDPCVKELTGNTTVDYYYYTTPFSTQIGNINLVMMHSQVNFGDGTCAPADRFFKMNSTTPEMIKEAKLKAKNFQYECMQYI	not soluble
MAHHHHHHMNSTDTKQSAGYFKEKATIGLSSFSGDEIVKAILKTTSHLLKAPKEKYMQKLVAASYGQYGSGLREGLPINEFIVRELEKRSHTHNWIVVLKTMVSFHRLMCDASDSMVETICYYRHVFRASNIKNLADTADGAGQAYFIAQYMTYLEERCVMQSALGKGRRVEIREFEEYLETLNAKSLQPVFEILLRLFEAVPAVEYREAVVNNFCTLEAYQLLVRDGKQLFQHLAKRVIFILDGFEDFSLPEKRRWFDLYRRYASAFASVKQYFDSMLCSSRVFLEPVPKLKPLPESLLTRLEGDIRASETAKEGLCTLESLGICSREDSRVDSKEEKIRPPRAPEPAVVNQSEAVTALTPAAPTVSLDDLFVPSQEPTKPVQPASCPASWTPAPLAATSFQQGSEQFQWETGVPQNWGSGGHITLQAIATPPVPPPQHAFSGGAPPPAGEGALYPLVQSALKQPPPPVQFKKPADPLKDLYNSCHWQSN	not soluble
MAHHHHHHMNSTTTISADPDGSSLCAASRISTPGTMSVLVPYKRRGQKSSMARGGASPQRRSPQPPYAGKSISTSASTLSSSVQPHGAGAASRGDQSRRGDAAPDGTLNAYSSHPAAPLDRPRDEEFDAVEQRARMALESIATRDEDLEPSMGDHIGVLQSYRTACEARAMYREAYLVQQVLRNLRLEEESRHVRGITEQQMEERRILEEAHRQEFREFHHSWNARIDAFEEEQLEAELALLERQNEELIRFQEEMRNFQPRLLRYSRSLLESRLKQQTLAKQRDYVGAQAQKAHAEAIEVEDIERFEAARMSLFERREYAARHRHQQELYALRTKVESRRLYLERYRKQELDVLLQRYINARRSMESQQNIVRNKTGTLLLKHACNMKTDSSGTAVLVESAGSGAFGTMVQRRQAYELRALQGSPDGASASVRDGSAM	not soluble
MAHHHHHHMNTHVISVGSRWVHHEVTQALRQRRGVRVEVNEELQHCDFASRASSVLYCDAHSAEMQRDQASLVLRLQEARQRCGTQPVILMVRMDSDNEVSLERLSWLNLECGVAQQCGLILVWSLDDAVQYLASLAAYAVTSLEFTGAARPYVGDAPLPVLVDALTQTPQVVTRNDVVRIANRKTSVADALMSEASEWEGIAGLGRKKAARLQHLFRTPFLSSQQRIDSFVPATGGSSFSTASKAAESHLSQPTGESTARPTEALSVDTAVTTEGRRRMMSALQQRLDKEDEEGGE	not soluble
MAHHHHHHMNVRKGILNYLTLHSTIVRRNHHRSYHKECRQQGSPHGMEKNSKMKNVRPNYFVCIPLSGNKALVEEFLKVQNHVASKFEMLKECAIERNKFHISLLILHVKKSQMESSKEAFHEAMAEIKKLNHQAISFDTLETFRNDVLYAGLQEGSRKYVMNVIALLRDSFAKRDIHIFGNRKGREEARGKKRASGASDKSAANPIDKSAANPSDKSAAPPGTHERDDKEQITPHVTIMKNSYLRKIYANRKPQIFADYYADFNLSKLKNERVVPNKIQFLEMDTDSATSYYRIIAECGLP	not soluble
MAHHHHHHMPKYYCEYCDIYLTHSSPVGRRQHIHGRKHISAKIEYFQNLLREEGITPQNFLGFLNNRNINNPLGNPMMNYMNPNMYMKYNPMKSYHSYSMRSSHPYRLNIHNNKYSRAGYVPPSHHKYSVNPMHNNYHQAHNNYSYPNSINPSNQINYSNNYGSNNFNNSNEFNKNMNEKDNINNNDIHDNKVKTDENDPINNDNLNNTRNFSYEENHYSTDHKKPSFLNPENSKEHIESDIS	not soluble
MAHHHHHHMPPLTLEQVLARSMRLPRKHMKHTATPMASNPAIGISTPLDNSLGRGDKSVAKLFSLIEKDEESTAAGRPFIHQSNNLIRNSHDLLTYLHTAKRMRAWEDALRSFAEVTKMLLINQTEEGDGVSLTLREGAEGAEGVTASVSHLALLLDTCASAKQWHLVEQIGEIFRSQSRQTLIDAVAVLANTKKETIGEGLYGWERALHFLQTRIPPEEQPVEAYNACIAACETALEWEGALAIVRSMGPNPLQNLDSKVFSGTTGIGVASAGSTVEGVSSSLGTEAREESVLATFPPPVPDVVTYATLISVLEQSGKEALASEVLQRLPPVEKEEITASYAALIHVWSEQKYRNHRRRF	not soluble
MAHHHHHHMPSDRVPSGDGFNNPYGNTTLVGNWLEDRLQQRIVHKRRGGAAATWCAQGIFEDPAVTMARHPAEAQAALLHSTYDVDYGHRPGRTQRTASGGVDNSAAASTLMRGSKHNANAAGPGSASSTAKGGIDKVLLFSIDPVADPAAPLPLSTNADTYGAFYYGNDNGSVDNNGARHAGSATGATTSSPADQGDGGATAPPADADRNLYDSVSRAVAAAAAPSSSFRMPRAPMQRGANADATFSSSPVPRRHMLSLGVATTSTFGHTGWTLASSSATSAADHVGAAPWRPLQRHRLPNKDSMDDERWCSSKQAADTPVEHFTLQQRLPPVRM	not soluble
MAHHHHHHMPSLFDPLTIGDLTLANRIIMAPLTRARAGDTRTPNALMARYYAERASAGLIISEATSVTPQGVGYASTPGIWSPEQVDGWRLVTDAVHAAGGRIFLQLWHVGRVSDPVFLDGALPVAPSAIAPGGHVSLVRPQRPYVTPRALELDEIPGVVAAFRRGAENARAAGFDGVEVHGANGYLLDQFLQDSANRRTDAYGGSIENRARLLLEVVDAAIDVWSAARVGVHLAPRGDAHTMGDSDPAATFGHVARELGRRRIAFLFARESFGGDAIGQQLKAAFGGPFIVNENFTLDSAQAALDAGQADAVAWGKLFIANPDLPRRFKLNAPLNEPNAATFYAQGEVGYTDYPALESAA	soluble
MAHHHHHHMPTFSDIMAARKALDGYVYETPIIESNALHGKTRHESVLLKCENLQRTGSYHVRGMTYRVIRAKEEDLGINNFVTHSSGNGGAALACAASNFQSTAHVVVPEDTNALITRSIRLYHGNFYYCKPDLKSRVEMEARLHSEFNKVAGKKRNQCMLVNPYSDEAIIAGHGTTGIEIMLQTDCSVDCVVIPVGGGALLAGAAIAVKGMKPHVGVFAAELAVPPDHYTVFKRGEVIEARKLKGDEKRPKGNKHGIRTELTDLANSYIDRYVDGVVHVSKEEMCYAFRYVYERCKLVVDTNAAIAVAAVLACPQELSNYRRICIVLSGGNVDLNDVPKIATARL	soluble
MAHHHHHHMQNLSPACTFNKNEEKIKCPSSTKLGCSDGTKIIQHEINERNMMPEIPNVSLTDENDFTFNKKRHVSSIPKNNNEYWVYPSSQQFYNSLIRKNKDIDKNYIDAVVSVHNEVNEESWKQILKYEHMHKRSCTDVTLHRFLGKFDDLSIKARFRSIFSRGKKKKNNNNNKKSVKGFFFMGRPFDRHDWYVNRCGTQVKYILDYYNDESINDDKNIYIDVRPAMNSFSNVWDRLRYPFYEFYFKYVKKDELFK	not soluble
MAHHHHHHMQRDVYASLIKKRHKQMVPLLIHQVSGDITRENIFDEVFHGYKLRRIVLMTHMAATPATLPRLPRDIIVSDFDKLKAIHQPHFHYKLLPLLCTDFEAFSALQGICASANSPFTIEDRKDPQGLTHRLSNGCSERQALCEFFDPHIAPAEKLVPVFSRKLPISAVVFDGLLLKQNYPKVAALLTVHEAASEKSIIERAIMRDFFVSPLYTKVSGNSDVAQSLRLVHHCTHFMALKRAVGSDAPSRQSLMRLAAEKKLFMYEKIGDEYQFVH	soluble
MAHHHHHHMRGEHELVIPGEQRRDWCSTDACENRLCRKKFSLLVSKQHCQWCGRIFCDNCAPCTATYGGRRLRRCNSCKFPAVFRSLRNLRTGKRDGSVARLIMSFLDSRSINALMHSCYTSLSEFNVGDYVYYESITDRFPTFFEGAMIGKGGFGSVYKCEDRSYPCRRRVALKVITKASVVTYRSWKKIVTELEIMQDVDHHNVAKLLEVLQTPHHLVIVMEAGDGGSLMQAWRLAKEYKYDVEVLVANVVLQVAEGLDYLYHKKGIVHRDIKLENIVLSHDFKRVMIIDFGLAEYVKQCETQLFVPCGTAGYTSPENIRAVVERRRVYEALGETMHLADMYSLGVVAYVLLCGHMPVATRCFSSLYQNMLKGIRCVGPHWANVSDDAKSLVESLVKTNSFERATVAVIREHPFIQAKAPLIVEIVQRHMHKQTETERREVKEWVYVEPLSDHWDMIEVETVSDEENRGLALRKGSSTFGRVGFMNRLKSVVWD	not soluble
MAHHHHHHMRKVKKNKQVRNMLKSLTERVDTDDGENEYARLTQTPVVKMNLSKVKLKTSLQSVLVEPYTEKVKDFVAKTNYEISMEKTLLDEIKNANQNMDRIGDVLSARGGKQRKTRDNHHIMGRYFHYLRDKNEDFGLSFFPVYKTFKSNFSHFSDNLNSSLYPHELLEMGSMSSGNFLKNSSKRISFPERGDS	not soluble
MAHHHHHHMRLIESRQMHEWDNAADSSLDVDHPEDAPFGQGPERQQQRDGKSNLGDQSDYGEEARTEATWLWRFGFPRTEDEKAYVASHLWSKGLRRRVAQLTDVRRRGRPGEFVIGVPEGLQHLREQRERLERERFGGVKVFPPQNA	not soluble
